Test results from the supplement of paper PMC10567573.

B1: EPB41L3 (parent)
chain: SMQCKVILLDGSEYTCDVEKRSRG
B2: KCNK9 (parent)
chain: CFITLTTIGFGDYVALQTKGALQK

Variants of: B1
Assay: protein stability index of a GFP-peptide fusion (GPS, HEK-293T) (PSI 1-6); higher = more stable
Conditions: c terminus: a fixed tail appended
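Also: lentivirally expressed fusions sorted by FACS into six bins by GFP to DsRed ratio, PSI derived from sequencing read proportions per bin multiplied by bin number.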

| Variant | protein stability index |
| --- | --- |
| SMQNKVILLDGSEYTCDVEKRSRG | 3.07 |
| SMQHKVILLDGSEYTCDVEKRSRG | 3.46 |
| SMQSKVILLDGSEYTCDVEKRSRG | 3.78 |
| SMQLKVILLDGSEYTCDVEKRSRG | 2.04 |
| SMQYKVILLDGSEYTCDVEKRSRG | 2.29 |
| SMQKKVILLDGSEYTCDVEKRSRG | 4.37 |
| SMQGKVILLDGSEYTCDVEKRSRG | 4.33 |
| SMQPKVILLDGSEYTCDVEKRSRG | 3.94 |
| SMQWKVILLDGSEYTCDVEKRSRG | 2.32 |
| SMQRKVILLDGSEYTCDVEKRSRG | 4.51 |
| SMQEKVILLDGSEYTCDVEKRSRG | 4.48 |

Variants of: B2
Assay: as above
Conditions: c terminus: a fixed tail appended

| Variant | protein stability index |
| --- | --- |
| CFITLTTIGFGDYVALQTKGPLQK | 2.97 |
| CFITLTTIGFGDYVALQTKGLLQK | 3.54 |
| CFITLTTIGFGDYVALQTKGKLQK | 3.05 |
| CFITLTTIGFGDYVALQTKGELQK | 3.6 |
| CFITLTTIGFGDYVALQTKGQLQK | 2.21 |
| CFITLTTIGFGDYVALQTKGVLQK | 2.29 |
| CFITLTTIGFGDYVALQTKGSLQK | 2.43 |
| CFITLTTIGFGDYVALQTKGGLQK | 2.1 |
| CFITLTTIGFGDYVALQTKGNLQK | 2.39 |
| CFITLTTIGFGDYVALQTKGTLQK | 2.56 |
| CFITLTTIGFGDYVALQTKGILQK | 2.44 |
| CFITLTTIGFGDYVALQTKGCLQK | 3.22 |
| CFITLTTIGFGDYVALQTKGMLQK | 1.99 |
| CFITLTTIGFGDYVALQTKGHLQK | 3.21 |
| CFITLTTIGFGDYVALQTKGFLQK | 3.44 |
| CFITLTTIGFGDYVALQTKGWLQK | 3.01 |
| CFITLTTIGFGDYVALQTKGRLQK | 3.3 |
| CFITLTTIGFGDYVALQTKGDLQK | 2.88 |
| CFITLTTIGFGDYVALQTKGALPK | 2.14 |
| CFITLTTIGFGDYVALQTKGALDK | 2.98 |
| CFITLTTIGFGDYVALQTKGALGK | 3.46 |

| Variant | protein stability index |
| --- | --- |
| CFITLTTIGFGDYVALQTKGALSK | 2.2 |
| CFITLTTIGFGDYVALQTKGALYK | 2.42 |
| CFITLTTIGFGDYVALQTKGALCK | 2.6 |
| CFITLTTIGFGDYVALQTKGALNK | 2.43 |
| CFITLTTIGFGDYVALQTKGALKK | 2.96 |
| CFITLTTIGFGDYVALQTKGALLK | 3.52 |
| CFITLTTIGFGDYVALQTKGALAK | 3.76 |
| CFITLTTIGFGDYVALQTKGALFK | 2.87 |
| CFITLTTIGFGDYVALQTKGALTK | 3.26 |
| CFITLTTIGFGDYVALQTKGALRK | 1.72 |
| CFITLTTIGFGDYVALQTKGALWK | 2.73 |
| CFITLTTIGFGDYVALQTKGALIK | 3.28 |
| CFITLTTIGFGDYVALQTKGALEK | 1.94 |
| CFITLTTIGFGDYVALQTKGALVK | 4.51 |
| CFITLTTIGFGDYVALQTKGALHK | 3.06 |
| CFITLTTIGFGDYVALQTKWALQK | 3.87 |
| CFITLTTIGFGDYVALQTKIALQK | 2.58 |
| CFITLTTIGFGDYVALQTKYALQK | 2.54 |
| CFITLTTIGFGDYVALQTKRALQK | 3.65 |
| CFITLTTIGFGDYVALQTKEALQK | 3.59 |
| CFITLTTIGFGDYVALQTKQALQK | 3.38 |

| Variant | protein stability index |
| --- | --- |
| CFITLTTIGFGDYVALQTKFALQK | 3.39 |
| CFITLTTIGFGDYVALQTKNALQK | 3.17 |
| CFITLTTIGFGDYVALQTKPALQK | 2.55 |
| CFITLTTIGFGDYVALQTKSALQK | 3.74 |
| CFITLTTIGFGDYVALQTKHALQK | 2.6 |
| CFITLTTIGFGDYVALQTKTALQK | 5.14 |
| CFITLTTIGFGDYVALQTKGADQK | 4.33 |
| CFITLTTIGFGDYVALQTKGAVQK | 2.62 |
| CFITLTTIGFGDYVALQTKGAFQK | 2.72 |
| CFITLTTIGFGDYVALQTKGAGQK | 2.86 |
| CFITLTTIGFGDYVALQTKGAPQK | 2.56 |
| CFITLTTIGFGDYVALQTKGAQQK | 2.46 |
| CFITLTTIGFGDYVALQTKGANQK | 1.91 |
| CFITLTTIGFGDYVALQTKGAMQK | 3.38 |
| CFITLTTIGFGDYVALQTKGAIQK | 2.06 |
| CFITLTTIGFGDYVALQTKGAEQK | 3.67 |
| CFITLTTIGFGDYVALQTKGASQK | 3.93 |
| CFITLTTIGFGDYVALQTKGARQK | 2.12 |
| CFITLTTIGFGDYVALQTKGATQK | 3.37 |
| CFITLTTIGFGDYVALQTKGACQK | 2.29 |
| CFITLTTIGFGDYVALQTKGAKQK | 2.4 |

| Variant | protein stability index |
| --- | --- |
| CFITLTTIGFGDYVALQTKGAYQK | 2.37 |
| CFITLTTIGFGDYVALQTKGAWQK | 2.21 |
| CFITLTTIGFGDYVALQTKGAAQK | 3.37 |
| CFITLTTIGFGDYVALQTKGALQF | 3.25 |
| CFITLTTIGFGDYVALQTKGALQE | 3.56 |
| CFITLTTIGFGDYVALQTKGALQQ | 2.33 |
| CFITLTTIGFGDYVALQTKGALQT | 3.42 |
| CFITLTTIGFGDYVALQTKGALQI | 2.09 |
| CFITLTTIGFGDYVALQTKGALQD | 3.71 |
| CFITLTTIGFGDYVALQTKGALQA | 2.85 |
| CFITLTTIGFGDYVALQTKGALQC | 2.9 |
| CFITLTTIGFGDYVALQTKGALQP | 2.96 |
| CFITLTTIGFGDYVALQTKGALQL | 2.51 |
| CFITLTTIGFGDYVALQTKGALQM | 2.88 |
| CFITLTTIGFGDYVALQTKGALQS | 3.33 |
| CFITLTTIGFGDYVALQTKGALQG | 2.28 |
| CFITLTTIGFGDYVALQTKGALQH | 2.47 |
| CFITLTTIGFGDYVALQTKGALQY | 3.16 |
| CFITLTTIGFGDYVALQTKGALQN | 3.29 |
| CFITLTTIGFGDYVALQTKGALQV | 3.03 |
